Data from the DeepSol protein solubility set.

assay: soluble on expression in E. coli; label from the status in PepcDB or PDB records

Row | Sequence | soluble on expression in E. coli
1 | MGSDKIHHHHHHMDGINTLRYSDLFLAMYFDGGKSCLHRNHSHVLVYVYSGEMVIDEKGQITRLHKGECAFIRKDFSVQMTKQAWNGEQFKAIFLMFTMKFLRDFYSKLDRNTLPKDAKRDQVSLYKLPSNRPDIVSLFESMTPYFNSKIQPTDELLQLKMVEGVYVLLNTDKNLYASIFDFTDPWKIDILEFMERNYMNDISMEEIANYTGRSLSTFKRDFKKCSALSPREWLIRRRLEAAHGLIRKGGRKVSEICFEVGFKNLSHFSKIYKIAYGVPPTEDI | not soluble
2 | RAGLSKLPDLKDAEAVQKFFLEEIQLGEELLAQGDYEKGVDHLTNAIAVCGQPQQLLQVLQQTLPPPVFQMLLTKLPTISQRIVSAQSLGEDDVE | soluble
3 | MGSDKIHHHHHHMTGTTENDNTGEDEKPKDEECAAIEHKDKFNPTAYLNSFYKTASEDTAMQIVLFFLPGILYRLPQKVRSVLDLGAGPTVYLPISLRDRAENIYTSDYAPANRDTLINWIEDKSDFDWDNVCSWIANIEASMETGKQMQNKTRKLMRAVLDVNVHESPVVQSIVWKENEQVQVPDKFQVVSTVFCLEYSCETLEAYFRAVRSACSLIDEGGILIQGGVLDATTYNFGGKTFRCHRLKQAHIIESLKANGMATTAEQGYKFITHDDIFLLVSKKL | not soluble
4 | MFRRIPLGRFLTRKIHNQTNGLIVPTTNVQKQQKRQILFKMGNETPARVVGYYVVFPVIPEETVENNCFMYNIAKNEDWPKLATAEPRELYEGTVRMLMDYGATVMEHMEHLATLPAEERKFENVVEPLLTEEYEVNFAFQTLVLKMLTDWPDCNRKLFDADLHHIKIMCARDQMEKLTNKDFQDAIKQLYEAKDGLSEWQSRLLEWYLLEIKASGLDKHDDKTRKVLGSWSKFVDEYRSKYITGVMSTNDQQTFVVTDQKVIKDAPPHVLQKLAVDEQNWESGPWRGRMTPHTIYPFMQYCGDRQLRATAWEKWTSKAGFDHDFYNNSINIEELRHNNEGLAKTLGYSSVAEHRLANKMAASPETVRGFINALQRRIRPVVIDRMESWSAWAGRCELITGELQAYDMPYVCRKEAEHHYEFFFQLKSSNFSFFRVNPLDLMNHFPFWPTFQNIMGVIGHIFNLEFKDITDKGLEKAHADVRIYSVGDKFSGQHYGRLYIDPYDRQNKRGGWNVMLARPESKERGLDKIVYFIGSAIAPTSNGPSLLHHQQLQQLLFHFGRSVQLLLSQSPYRDISIPWSPFYASDWDAADMFPTFLQMFVTKPNLLATISSPHQITKQSLTEEHANSVALTISRASLWETYRTLFWSDFDLSIYEMEDRKQKFWLDMYKQMYEEYFPFKRAKNDYQPCSFTPIFALQPHMSMYYRKLWAEMLALDIHETFDEEDNEVQTGERLKTTILNRGSGDVAKELFKRFQGRNPSVGAICDHYAPPMAIQDEMEMSENQRR | not soluble
5 | AKEKDTIRTEGVVTEALPNATFRVKLDSGPEILAYISGKMRMHYIRILPGDRVVVEITPYDPTRGRIVYRK | soluble
6 | SSQTGEKGKFPDAAGYVGFANLPNQVHRKSVKKGFEFTLMVVGESGLGKSTLINSLFLTDLYPERYIPGAAEKIERTVQIEASTVEIEERGVKLRLTVVDTPGYGDAINSQDCFKTIIQYIDNQFERYLHDESGLNRRHIVDNRVHCCFYFISPFGHGLKPLDVEFMKAIHSKVNIVPVIAKADTLTLKERDRLKRRILDEISEHGIRIYQLPDADSDEDEEFKDFVPNRCIWSSLQFYQMHIIAITFIDIMFVFKKAAHVISTTIIMVKLNIKCQ | soluble
7 | MNPLKKIKDWIAEGKAGWHLAGGRSSLKQGKYKEALKEFRKALKARPNNPEILHYNAITLLKLKRPEKALECYEKILKNNPKLAEAWNNKGLVLKELGRYDEALECYEKALKINPKYAGAWNNKALVLKELGRYDEALECYEKALQINPKLADAWYNKGSVLIYLKKYKKALKCFEKAIELNPKNYRAWGTKGITLHNLKIYEEALKCYDKVLQLNPQDDKAWNNKGLVFNELGRYDESLECYEKALQINPKLAEAWNNKGVVLSELGRYEEALECYEKALEIDPEDDKTWNNKGLVLEELGKYKDALECFQKALEINPEFADAWKWKGIILEDLKKPEESLKCYKKALKLNPPKQNTMVHARKNTTKTRQTQRSTKML | not soluble
8 | MGSDKIHHHHHHMSNSLKASTTGLGIVDKARKRLGWTKTSTACWWQDAHTSRATLRRFWQGDRIQQEIFIAICQAVGINDWQNIAEIPNADFEETSTQYLDWDDAPDLESFYGRNQELAQLEEWILGDRCKLIIITGIAGIGKTALALALADLLQLKFDGLIWKTLHSVPSLVPLLDGLLHTFKQTPVDDIPSDTAKLIHHLQQRRCLLILDGLDESEKHYHQFIQQLSRAHHQSCIILTSREQPNIIESNTKTVRSLTLTGLPKDDAVKLLQARGFTGKEIGLSPLIQLYRGNPLALKLVTPLIQSVFGGNIAAFLSQNTIVIGDRLRAILKQQFEQLSDLEQNILYWLAIWQQPISFSRLQTHLLISLDPATVLDAIVSLERRSLLEKWICSDAPAFTLQPLVMKIATDELVERATQEIIQVMQSRDIADFKVLRTHWLLRPGSDDIVGDRILHQLQEKLWQIYGANLVQNLQQILLLLNDKSPLTIGYIACNITTIITKGV | not soluble
9 | MGSDKIHHHHHHMRNEYFFRVAGLTFSVILPGGLDAETLLPSFRPFRCGECPEGERIFRLLADTRPFADDGKRAELLDESSNDMGHVCLLRIPGGYRTEISYGPMDGGAHLMTVDTAFDDATAFLRVEDPSMGEVLSSMLRILYAQAALGRDAVSVHASCVSLKGRGYLFLGKSGTGKSTHSRQWLEAFPDCRLLNDDNPVLRIEDGMVSVYGTPWSGKTPCYRNERRPVAGIVRLQQSGTNRFTPLEGPEAFAALLPSCSAIRQDIRLHDELCRILIRVTEQVPVGRLECLPDREAAWLCFESLYVRDAKAREVRDGLPENGGL | not soluble
10 | MIRLQKFKQLTVWVMLGLLTSWIVSCSTDNVGTISKPVTSEVTKIEFWTMQLQPQFTNYFQSLITSFESQNPSIKVKWVDVPWSAMENKILTAVSAKTPPDVVNLNPDFASQLAGRNAWLDLDEKVPSEVSSSYLPNIWQASTLNGKTFGIPWYLTTRLTIYNTDLLKQAGITKPPATYTELAQEAQQIKDKTGKYAFFATFVPQDSGEVLESFVQMGVTLVNAEGKAAFNSPQGKAAFQYWVYLYKKGLLPKESLTQGHRHAIDLYQSGETAFLASGPEFLETISNNAPKISQASAIAPQITGDTGKKNVAVMNIVIPRASKQPDAAVKFALFVTNDENQLAFAKAANVLPSTVTALADSYFKEVPATATIAEKGRIISAQQMQTAEVLTPKMKDFKFLQKAIYENLQAAMLGQKTVDKALEDAAQQWNNR | not soluble
11 | MGSDKIHHHHHHMKAISANLQRLLAESGMKQSHLATILNIPTSSLNEYVKGKSLPKIGNIQKIADYFGLQKSDIDPRFASKKDSSTLDKINHIAKQLEMKRQIKVLDFCYQQSKEQDETASLSASDETTEDKVADKSNHTQYQKVVDSFIAKELNDQTIIHWDNVIKAKDLYQTFGRQYENIQIYGEVSAGTGIWVGHEKQETIKYPIPIPEHDIALIVNGNSMEPLFYNGDVIFVKKTKAIHHGQIIVVIVNNEAYVKKLYRKNKEIRLISLNPDYDDIILKEDDTIEVIGTVIT | not soluble
12 | MAHHHHHHMRKLSGDLKATAATPLTPPVTTPQPQPDGTDRSKSAGGQATYEPLHVLGQGSFGVVMMARVRETGKMVAVKKVLFDRRLHHRELLLLRDHLGPGTHAGQAGTGNHDDPGKEAGKTDPSNTNNSAGEVGFTPLGDLASVPTTVSYHPCIVRLLDHFTVAGPNGEQYLYIVMDYLPLDIHHLHHIYLRQKQQRMPFILVKVIMFQLARALMFLHLRGICHRDVKPSNLLIDPETGVLKLCDFGSAKVMQPQGVNGPIEKNVSYICSRYYRAPELLLGSLYYHFHVDMWAAGCVLAELLCGEVLFKGASTVDQMAEIFKVLGAPSRQELLALNPQGAEALFHATGAGLEVTPTSAANTATSSDYLQRYHALRIKALQWQNVLPPNTPPAAVSLVGELLRYTPAERLSAAEVLEHSFFDDIFAEDASLPNGAPLPVSMFEVTAEEMEALPPWLLERMASAEASARRRHVSAGGSGKVVPPQKRQEQEGRK | not soluble
13 | MLRSFTIRTAKRDEMIDITSFVEETVRQANVTEGIAVVYCPHTTAGITINENADPDVKRDMMRRFDETYPWEHPLDRHMEGNTAAHMKASTVGASQHVIIHEGRLLLGRWQGVYFCEYDGPRHRTFYVKVIGG | not soluble
14 | SYVQEHRLWGLMDKPHSAPCLMSLSLSFLICNKGRNAIRVQQSTDERMDAMLLWQCPTQGTRKNHESNSSLHHVPNWIFHSTIIPPNKGSKRCLRKVDWLLPRAGGVGGKRGVTADGDRVSF | soluble
15 | MGAQGSRVDFKQVVLDVTSKPGKDDETFWDQAWWPDSVNEIFAMISGEDIRKLRDESPKNLATLVYKTVEKLQFSRNHPATIDQKKTINAIRLLTRIVPYLLEDAEWRGYFWSPIPHGDAAKPLAAVLLETLSDLLFCPEFTITHANGQKIDDLSTIDSCEYIWEAGVGSGNKPPMVALHYQNRTEILKLLLTCFAELIYAPVSDETRLRWVIHFTSVTNPHVLPIFTSLLNIVCAYDPVGYGLPYNYLLFNDSREPLVEIALQVLIVCLDKETQPNTDDSGYKDNYFINYLSRIHREEDFDFMLKGITRLLSNPIHSSSSYLPNSTKRVNFHQELLVLLWKCCEINQKFMFYVLKTSDVLDILVPILYHISDARNDSGRVGLIHMGVFIILLLSGERNFGVRLNKPYTAKANINVQTFTGTHADLLILVIHKLITTGNYRLQTLFDCFLTIMVNVSPYMKSLSMVAANKLVHLVEAFSTPWFLFSSPTNPQLVFSLLEVFNNVIQYQFDGNSNLIYTIIRKRNVFYQLSNLSTDAASIAKTLSGRKSKSANRDEMVDQLKSPTSTAPPEIPAADAPAAQTLGGVSTTTGLAATPALASMTGNVGNWEERPESSQDNEWIATQEWADAWKSKLPLQTIMRLLQVLVPQVEKICIDKGLTDESEILKFLQHGTLVGLLPVPHPIVIRRYQTNIGTNHWFRIYMWGVIYLKHTQPPIWYDTDVKLFEVQRA | not soluble
16 | MGSDKIHHHHHHMEIQNLKFEDRDEFKRKSIAAKVISVLQADIDISPMVIDGSWGTGKTEFCHKLINLMHVSDTHHLIYVDAFKADHADEPLMTVLAEVIKVLPDDDSKQSFMKKALPAVRYGLKTIAKAGVSHLLRQDIADVADDFDKQIQGAADKAIDATVESVLKDHVKADKNLKALQVALADIAAIKPIVLFIDELDRCRPNFAVDMLEIIKHTFDVDGVKFVLITNTQQLKASINHCYGLSVDAQRYLDKFVKFTIALPETVDTNAHRESIAAIEHYKNLVRSSHVLVDMKLYECGSIRTIEQIIIANRLSLREVETVVRHIEIYVTLAQSNNLQSNTIFGYKVLTILAIAIYSIQPEVALSILQKKLDAKDIGNCLGISSLSNNIQGRPDEQELICYMLGYTALHNKEHFTPTEDVDVWKQESAQYFRGAHWRTDDFASICAEAIQTLTMC | not soluble
17 | MSLDLETDVVAGTAERKGSAEGKVEIEDRHVTKVSLPVQVVTGDENTLCYYTAIFDGHDGSSCAQYATVNLHKNLISLYRQIYSTVQRRKFLSVGLEALVKATAKSFFMTDHNFLDSARKSGVEQDAGSTACVVLLFGPDDDGQLKLLTAHAGDTRAVLCRDDRALRLTEDHRPNHKLEQRRVQQNGGEVMNIEGVWRVIFVDRKTNRLFGLATSRALGDRRMKVPKKLVTCQPTLHVYAINFETDLFLVLASDGIWDVLSDEEVVAIVSEHLDKPPQEAARFVIDEAVKRGSEDDKTCTVLFFKWRRDRFPSEGHHHHHH | soluble
